Assay results as given in PMC9770967, “Native holdup (nHU) to measure binding affinities from cell extracts” (Science Advances, 2022).

Assays:
Format in all cases: binding, human
SCRIB_PDZ_1 = experiment: nHU-MS, SCRIB_PDZ_1 bait, total Jurkat extracts (Exploris MS)
From the text: (§1) To further establish the repeatability and robustness of the nHU-MS assay, we repeated the experiments using a different mass spectrometer and six different PDZ domain baits taken from SCRIB (PDZ_1 and PDZ_2), discs large MAGUK scaffold protein 1 (DLG1, PDZ_1, and PDZ_2), Tax1 binding protein 3 (TAX1BP3), and SNX27 (fig. S3B and table S1). […] Of the studied baits, the PDZ domain of SNX27 turned out to be the most promiscuous with 103 statistically significant interaction partners (while 180 SNX27 binding partners were identified in total on the basis of the three independent nHU-MS experiments).
(§2) For saturating streptavidin resin with biotinylated peptides or biotin, 50 μl of streptavidin resin was mixed with biotin or peptide at 40 to 60 μM concentration in 6 to 6.5 resin volume for 60 min. To saturate streptavidin resin with biotinylated proteins, 50 μl of streptavidin resin (Streptavidin Sepharose High Performance, Cytiva) was mixed with biotinylated MBP or MBP-PDZ at 40 to 50 μM concentration in 20× resin volume for 60 min. After saturation, resins were washed a single time [10 resin volume, holdup buffer: 50 mM tris (pH 7.5), 300 mM NaCl, and 1 mM TCEP, 0.22-μm filtered] and were depleted with biotin (10 resin volume, 10 min, holdup buffer supplemented with 100 μM biotin). Last, resins were washed two times (10 resin volume, holdup buffer).
(§3) For single-point nHU experiments carried out at ~10 μM bait concentration, 50 μl of saturated streptavidin resin was mixed with 200 μl of cell lysate (2 mg/ml). Titration experiments were carried out by mixing control and bait-saturated resin and keeping the total resin volume constant; e.g., ~5 μM bait concentration can be achieved by mixing 25 μl of bait-saturated streptavidin resin with 25 μl of control resin and 200 μl of cell lysate (2 mg/ml). Control and bait-saturated resins were prepared in larger amounts, and a serial dilution was prepared with these presaturated resins to achieve different resin ratios.
(§4) Unless specified elswhere, the nHU mixture was incubated at 4°C for 2 hours. After the incubation ended, the resin was separated from the supernatant by a brief centrifugation (15 s, 2000 g). Then, half of the supernatant was removed by pipetting without any delay to avoid any resin contamination; e.g., 100 μl of supernatant is collected if 200 μl of cell lysate was used as analyte. Alternatively, the supernatant can be centrifuged an additional time to clarify it further, removing any possible resin contamination. In principle, the separation of the supernatant should be as fast as possible since any delay can perturb the equilibrium. […] Alternatively, the resin can be separated from the supernatant using filter plates (e.g., various products of Millipore, Burlington, MA) or spin columns (e.g., Pierce spin cups—cellulose acetate filter from Thermo Fisher Scientific, Waltham, MA) to achieve faster separation.
The nHU samples were precipitated with trichloroacetic acid (TCA) 20% overnight at 4°C and centrifuged at 14,000 rpm for 10 min at 4°C. The protein pellets were washed twice with 1 ml of cold acetone and air-dried. The protein extracts were solubilized in 8 M urea, reduced with 5 mM TCEP for 30 min, and alkylated with 10 mM iodoacetamide for 30 min in the dark. Double digestion was performed at 37°C with 500 ng of endoproteinase Lys-C (Wako, Richmond, USA) for 4 hours, followed by fourfold dilution and an overnight digestion with 500 ng of trypsin (Promega, Charbonnieres les Bains, France). Peptide mixtures were then desalted on a C18 spin-column and dried on a speed vacuum.
(§5) Samples were analyzed using an Ultimate 3000 nano-RSLC coupled in line via a nano-electrospray ionization source, with an LTQ-Orbitrap ELITE mass spectrometer (Thermo Fisher Scientific, San Jose, CA) or with the Orbitrap Exploris 480 mass spectrometer (Thermo Fisher Scientific, Bremen, Germany) equipped with a high field asymmetric ion mobility spectrometry (FAIMS) module. […]

SCRIB_PDZ_2 = experiment: nHU-MS, SCRIB_PDZ_2 bait, total Jurkat extracts (Exploris MS)
From the text: as §1, §2, §3, §4
(§6) The nHU samples were precipitated with trichloroacetic acid (TCA) 20% overnight at 4°C and centrifuged at 14,000 rpm for 10 min at 4°C. The protein pellets were washed twice with 1 ml of cold acetone and air-dried. […]
as §5

TX1BP3_PDZ = experiment: nHU-MS, TX1BP3_PDZ (TAX1BP3) bait, total Jurkat extracts (Exploris MS); conditions: nHU-MS, total Jurkat extract
From the text: as §1, §2, §3
Unless specified elswhere, the nHU mixture was incubated at 4°C for 2 hours. After the incubation ended, the resin was separated from the supernatant by a brief centrifugation (15 s, 2000 g). Then, half of the supernatant was removed by pipetting without any delay to avoid any resin contamination; e.g., 100 μl of supernatant is collected if 200 μl of cell lysate was used as analyte. […]
as §5

DLG1_PDZ_2 = experiment: nHU-MS, DLG1_PDZ_2 bait, total Jurkat extracts (Exploris MS); conditions: Jurkat extract
From the text: as §1, §2
(§7) For single-point nHU experiments carried out at ~10 μM bait concentration, 50 μl of saturated streptavidin resin was mixed with 200 μl of cell lysate (2 mg/ml). […]
as §5

DLG1_PDZ_1 = experiment: nHU-MS, DLG1_PDZ_1 bait, total Jurkat extracts (Exploris MS)
From the text: as §1, §2, §7, §5

SNX27_PDZ = experiment: nHU-MS, SNX27_PDZ bait, total Jurkat extracts, series 2 (Exploris MS); conditions: Jurkat, series 2, n = 3
From the text: as §1, §2, §3, §4, §6, §5

B1: NBDY: Negative regulator of P-body association (protein, UniProt A0A0U1RRE5 1-68, looked up)
Negative regulator of P-body …: MGDQPCASGRSTLPPGNAREAKPPKKRCLLAPRWDYPEGTPNGGSTTLPSAPPPASAGLKSHPPPPEK
- Ratio SCRIB_1/MBP (SCRIB_PDZ_1; nHU-MS, SCRIB_PDZ_1, total Jurkat extract): 1.029
- BI (SCRIB_PDZ_1; nHU-MS, SCRIB_PDZ_1 bait vs MBP, total Jurkat extract): -0.02908
- Difference log2 (SCRIB_PDZ_1; nHU-MS, SCRIB_PDZ_1 vs MBP, total Jurkat extract): 0.04136
- Ratio SCRIB_2/MBP (SCRIB_PDZ_2; nHU-MS, SCRIB_PDZ_2, total Jurkat extract): 1.014
- BI (SCRIB_PDZ_2; nHU-MS, SCRIB_PDZ_2 bait vs MBP, total Jurkat extract): -0.01381
- Difference log2 (SCRIB_PDZ_2; nHU-MS, SCRIB_PDZ_2 vs MBP, total Jurkat extract): 0.01978
- BI (TX1BP3_PDZ; TX1BP3_PDZ bait vs MBP): 0.0117
- pKd (TX1BP3_PDZ; TX1BP3_PDZ bait, not filtered for significance (pKdsign N/D)): 3.0735
- Difference log2 (TX1BP3_PDZ; TX1BP3_PDZ vs MBP): -0.01698
- Ratio TX1BP3/MBP (TX1BP3_PDZ; TX1BP3_PDZ): 0.9883
- Difference log2 (DLG1_PDZ_2; DLG1_PDZ_2 bait vs MBP): 0.1631
- Ratio DLG1_2/MBP (DLG1_PDZ_2; DLG1_PDZ_2 bait vs MBP): 1.12
- BI (DLG1_PDZ_2; DLG1_PDZ_2 bait): -0.1197
- Ratio DLG1_1/MBP (DLG1_PDZ_1; DLG1_PDZ_1, total Jurkat extract): 1.036
- BI (DLG1_PDZ_1; DLG1_PDZ_1 bait vs MBP, total Jurkat extract): -0.03605
- Difference log2 (DLG1_PDZ_1; DLG1_PDZ_1 vs MBP, total Jurkat extract): 0.0511
- BI (SNX27_PDZ): 0.08384
- Difference log2 (SNX27_PDZ): -0.1263
- Ratio SNX27/MBP (SNX27_PDZ): 0.9162
- pKd (SNX27_PDZ; apparent, not filtered for significance): 3.962

B2: EWSR1 (protein, UniProt Q01844 1-656, looked up)
RNA-binding protein EWS: MASTDYSTYSQAAAQQGYSAYTAQPTQGYAQTTQAYGQQSYGTYGQPTDVSYTQAQTTATYGQTAYATSYGQPPTGYTTPTAPQAYSQPVQGYGTGAYDTTTATVTTTQASYAAQSAYGTQPAYPAYGQQPAATAPTRPQDGNKPTETSQPQSSTGGYNQPSLGYGQSNYSYPQVPGSYPMQPVTAPPSYPPTSYSSTQPTSYDQSSYSQQNTYGQPSSYGQQSSYGQQSSYGQQPPTSYPPQTGSYSQAPSQYSQQSSSYGQQSSFRQDHPSSMGVYGQESGGFSGPGENRSMSGPDNRGRGRGGFDRGGMSRGGRGGGRGGMGSAGERGGFNKPGGPMDEGPDLDLGPPVDPDEDSDNSAIYVQGLNDSVTLDDLADFFKQCGVVKMNKRTGQPMIHIYLDKETGKPKGDATVSYEDPPTAKAAVEWFDGKDFQGSKLKVSLARKKPPMNSMRGGLPPREGRGMPPPLRGGPGGPGGPGGPMGRMGGRGGDRGGFPPRGPRGSRGNPSGGGNVQHRAGDWQCPNPGCGNQNFAWRTECNQCKAPKPEGFLPPPFPPPGGDRGRGGPGGMRGGRGGLMDRGGPGGMFRGGRGGDRGGFRGGRGMDRGGFGGGRRGGPGGPPGPLMEQMGGRRGGRGGPGKMDKGEHRQERRDRPY
- pKapp (nHU-MS) (SCRIB_PDZ_1; SCRIB_PDZ_1&Jurkat (Exploris)): 4.689
- pKapp (nHU-MS) (SCRIB_PDZ_2; SCRIB_PDZ_2&Jurkat (Exploris)): 4.691
